{
  "source": "paper doi:10.1101/2024.03.22.585941",
  "about": "(bioRxiv, 2024)",
  "proteins": {"B1": {"name": "LexAPaS125A, full-length P. aeruginosa LexA carrying the S125A mutation in the catalytic dyad (natural protein)", "chain": "MQKLTPRQAEILSFIKRCLEDHGFPPTRAEIAQELGFKSPNAAEEHLKALARKGAIEMTPGASRGIRIPGFEPHAANDDEGLPVIGRVAAGAPILAEQNIEESCRINPAFFNPRADYLLRVRGMAMKDIGILDGDLLAVHVTREARNGQVVVARIGEEVTVKRFKREGSKVWLLAENPEFAPIEVDLKEQELIIEGLSVGVIRR"}},
  "target": "the molecule itself",
  "test": "SEC",
  "data": [
    {"protein": "B1", "values": [
      {"measurement": "stoichiometry N", "value": 2}
    ]}
  ]
}
